What all share (conditions): 0-30 nM lacritin
A short description of one test: ECM binding ELISA. The protocol:
(§1) Binding studies were carried out in 96 well plates coated with 10 μg/well of collagen IV, laminin-1, entactin/nidogen-1, collagen I, fibronectin, vitronectin, EGF, heparin or BMS. Wells were washed, blocked (PBS-T), incubated with 0-30 nM lacritin (in PBS-T containing 1% BSA) for 1 hr (4° C.), washed and detected with anti-lacritin antibody (1/1000) by ELISA.

In a further test the target is EGF (Homo sapiens, UniProt P01133). The experiment in a line: ECM binding ELISA. As for the experimental part:
as §1
A general note: In an ELISA, binding on a coated surface is turned into a signal by an enzyme label.

Another test deals with collagen I (Homo sapiens, UniProt P02452+P08123). The test is described as follows: ECM binding ELISA. As for the experimental part: as §1
The next test concerns collagen IV. The experiment in a line: ECM binding ELISA. As for the experimental part:
as §1

In another test the target is fibronectin (Homo sapiens, UniProt P02751). The test is described as follows: ECM binding ELISA. As for the experimental part:
as §1

In the next test the test system is laminin-1. The experiment in a line: ECM binding ELISA. The protocol:
as §1

The target in the next test is T1, nidogen/entactin (Homo sapiens, UniProt P14543).
T1 sequence (P14543 29-1247): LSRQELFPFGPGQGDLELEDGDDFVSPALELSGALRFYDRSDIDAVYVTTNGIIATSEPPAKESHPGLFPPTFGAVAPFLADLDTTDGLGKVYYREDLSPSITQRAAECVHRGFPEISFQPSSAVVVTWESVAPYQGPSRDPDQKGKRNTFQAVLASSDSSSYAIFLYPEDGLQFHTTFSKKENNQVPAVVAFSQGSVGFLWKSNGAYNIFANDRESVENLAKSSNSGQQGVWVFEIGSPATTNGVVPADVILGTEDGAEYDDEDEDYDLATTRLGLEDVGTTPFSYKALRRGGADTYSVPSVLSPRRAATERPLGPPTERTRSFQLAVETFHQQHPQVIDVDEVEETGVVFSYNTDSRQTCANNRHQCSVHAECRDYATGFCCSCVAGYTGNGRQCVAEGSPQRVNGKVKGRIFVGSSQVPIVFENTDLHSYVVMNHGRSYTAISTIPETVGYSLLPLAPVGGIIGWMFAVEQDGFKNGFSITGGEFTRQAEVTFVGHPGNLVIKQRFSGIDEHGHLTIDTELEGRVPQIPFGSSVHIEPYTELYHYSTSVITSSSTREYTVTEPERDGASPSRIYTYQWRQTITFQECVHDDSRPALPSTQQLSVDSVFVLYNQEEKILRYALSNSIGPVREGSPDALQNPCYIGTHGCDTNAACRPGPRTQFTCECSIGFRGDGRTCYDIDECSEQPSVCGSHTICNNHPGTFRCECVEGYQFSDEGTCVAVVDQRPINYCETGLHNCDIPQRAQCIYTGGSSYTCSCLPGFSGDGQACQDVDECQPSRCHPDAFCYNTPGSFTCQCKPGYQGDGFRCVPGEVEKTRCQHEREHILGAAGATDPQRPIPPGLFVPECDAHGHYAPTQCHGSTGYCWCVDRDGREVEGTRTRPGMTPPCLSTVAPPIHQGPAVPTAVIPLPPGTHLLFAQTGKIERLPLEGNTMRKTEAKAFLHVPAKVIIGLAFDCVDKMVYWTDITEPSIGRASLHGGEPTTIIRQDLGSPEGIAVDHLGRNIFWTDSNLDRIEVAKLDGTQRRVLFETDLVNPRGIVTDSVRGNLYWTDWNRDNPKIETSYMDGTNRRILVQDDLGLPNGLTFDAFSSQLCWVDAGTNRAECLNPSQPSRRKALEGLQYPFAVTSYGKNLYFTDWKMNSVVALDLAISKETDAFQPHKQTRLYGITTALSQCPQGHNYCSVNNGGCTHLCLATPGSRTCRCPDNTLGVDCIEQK
The test is described as follows: ECM binding ELISA. The protocol: as §1

The next test deals with T2, vitronectin (Homo sapiens, UniProt P04004).
T2 sequence (P04004 20-478): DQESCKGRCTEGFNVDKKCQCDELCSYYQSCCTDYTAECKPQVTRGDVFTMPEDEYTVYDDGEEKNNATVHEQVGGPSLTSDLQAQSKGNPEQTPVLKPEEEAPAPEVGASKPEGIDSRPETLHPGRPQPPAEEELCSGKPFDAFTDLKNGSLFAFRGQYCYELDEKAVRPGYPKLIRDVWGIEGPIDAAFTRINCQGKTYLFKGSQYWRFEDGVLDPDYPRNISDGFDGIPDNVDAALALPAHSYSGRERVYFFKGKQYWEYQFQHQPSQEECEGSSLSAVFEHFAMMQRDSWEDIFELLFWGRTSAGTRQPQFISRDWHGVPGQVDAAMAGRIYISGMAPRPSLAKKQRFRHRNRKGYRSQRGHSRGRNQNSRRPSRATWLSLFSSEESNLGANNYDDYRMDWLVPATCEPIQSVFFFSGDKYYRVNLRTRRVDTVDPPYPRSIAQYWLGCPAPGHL
The experiment in a line: ECM binding ELISA. As for the experimental part: as §1

This is an account of results in patent US7648964B2, “Use of lacritin in promoting ocular cell survival” (University of Virginia Patent Foundation, priority 2004, dated 2010).

collagen I, sequence (P02452 162-1218 limits assumed): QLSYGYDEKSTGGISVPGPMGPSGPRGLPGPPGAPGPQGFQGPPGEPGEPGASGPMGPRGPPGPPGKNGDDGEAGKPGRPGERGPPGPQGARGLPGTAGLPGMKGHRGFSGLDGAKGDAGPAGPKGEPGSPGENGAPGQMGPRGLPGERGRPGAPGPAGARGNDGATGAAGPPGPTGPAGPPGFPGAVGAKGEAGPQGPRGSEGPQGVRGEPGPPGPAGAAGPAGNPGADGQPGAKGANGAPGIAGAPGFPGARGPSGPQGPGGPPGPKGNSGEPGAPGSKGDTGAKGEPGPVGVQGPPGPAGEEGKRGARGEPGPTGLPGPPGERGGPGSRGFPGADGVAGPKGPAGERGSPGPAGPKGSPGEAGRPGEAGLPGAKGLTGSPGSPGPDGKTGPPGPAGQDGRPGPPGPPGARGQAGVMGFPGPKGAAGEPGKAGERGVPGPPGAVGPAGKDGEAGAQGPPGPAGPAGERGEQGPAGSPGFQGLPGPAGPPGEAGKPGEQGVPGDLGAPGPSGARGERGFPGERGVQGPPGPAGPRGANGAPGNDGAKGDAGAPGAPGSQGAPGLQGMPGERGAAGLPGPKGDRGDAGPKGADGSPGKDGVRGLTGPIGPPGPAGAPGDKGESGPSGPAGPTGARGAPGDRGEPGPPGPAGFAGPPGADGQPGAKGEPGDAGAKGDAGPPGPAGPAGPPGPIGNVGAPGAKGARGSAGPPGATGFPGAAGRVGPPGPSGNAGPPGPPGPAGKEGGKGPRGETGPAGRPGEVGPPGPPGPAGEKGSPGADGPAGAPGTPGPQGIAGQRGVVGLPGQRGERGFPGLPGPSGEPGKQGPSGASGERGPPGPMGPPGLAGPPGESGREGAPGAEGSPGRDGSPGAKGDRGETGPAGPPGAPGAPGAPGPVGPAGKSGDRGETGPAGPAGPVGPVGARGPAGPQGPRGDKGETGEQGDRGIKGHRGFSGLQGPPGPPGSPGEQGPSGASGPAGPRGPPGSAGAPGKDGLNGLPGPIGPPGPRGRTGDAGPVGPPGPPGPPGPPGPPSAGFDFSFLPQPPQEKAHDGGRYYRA
collagen I, sequence (P08123 80-1119 limits assumed): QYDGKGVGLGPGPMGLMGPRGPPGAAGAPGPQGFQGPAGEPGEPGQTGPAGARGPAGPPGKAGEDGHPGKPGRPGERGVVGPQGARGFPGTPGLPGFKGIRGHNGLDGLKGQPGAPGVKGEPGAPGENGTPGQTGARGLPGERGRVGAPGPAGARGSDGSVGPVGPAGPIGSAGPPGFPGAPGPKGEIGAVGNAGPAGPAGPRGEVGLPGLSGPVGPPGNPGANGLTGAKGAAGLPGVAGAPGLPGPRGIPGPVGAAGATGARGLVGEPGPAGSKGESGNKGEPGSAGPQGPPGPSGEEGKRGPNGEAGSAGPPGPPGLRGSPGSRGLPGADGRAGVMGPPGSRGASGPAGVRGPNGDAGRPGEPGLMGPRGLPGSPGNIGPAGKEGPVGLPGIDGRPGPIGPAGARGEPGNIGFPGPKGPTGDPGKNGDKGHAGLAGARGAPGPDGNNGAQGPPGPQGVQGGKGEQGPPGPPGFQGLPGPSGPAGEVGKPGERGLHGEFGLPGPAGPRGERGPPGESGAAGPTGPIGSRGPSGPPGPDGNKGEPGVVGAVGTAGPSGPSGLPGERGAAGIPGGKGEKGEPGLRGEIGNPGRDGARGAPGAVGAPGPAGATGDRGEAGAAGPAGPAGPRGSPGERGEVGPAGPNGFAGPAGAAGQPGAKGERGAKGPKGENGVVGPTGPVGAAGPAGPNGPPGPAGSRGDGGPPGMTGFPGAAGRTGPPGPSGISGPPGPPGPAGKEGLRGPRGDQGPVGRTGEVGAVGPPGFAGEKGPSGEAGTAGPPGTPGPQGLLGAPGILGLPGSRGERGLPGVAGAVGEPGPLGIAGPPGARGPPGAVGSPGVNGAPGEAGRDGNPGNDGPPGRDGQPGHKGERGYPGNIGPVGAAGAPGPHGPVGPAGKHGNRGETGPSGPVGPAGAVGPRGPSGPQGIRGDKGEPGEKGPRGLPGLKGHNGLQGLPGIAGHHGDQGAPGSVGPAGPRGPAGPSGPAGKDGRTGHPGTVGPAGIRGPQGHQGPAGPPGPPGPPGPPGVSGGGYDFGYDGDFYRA
fibronectin, sequence (P02751 32-2477, species assumed): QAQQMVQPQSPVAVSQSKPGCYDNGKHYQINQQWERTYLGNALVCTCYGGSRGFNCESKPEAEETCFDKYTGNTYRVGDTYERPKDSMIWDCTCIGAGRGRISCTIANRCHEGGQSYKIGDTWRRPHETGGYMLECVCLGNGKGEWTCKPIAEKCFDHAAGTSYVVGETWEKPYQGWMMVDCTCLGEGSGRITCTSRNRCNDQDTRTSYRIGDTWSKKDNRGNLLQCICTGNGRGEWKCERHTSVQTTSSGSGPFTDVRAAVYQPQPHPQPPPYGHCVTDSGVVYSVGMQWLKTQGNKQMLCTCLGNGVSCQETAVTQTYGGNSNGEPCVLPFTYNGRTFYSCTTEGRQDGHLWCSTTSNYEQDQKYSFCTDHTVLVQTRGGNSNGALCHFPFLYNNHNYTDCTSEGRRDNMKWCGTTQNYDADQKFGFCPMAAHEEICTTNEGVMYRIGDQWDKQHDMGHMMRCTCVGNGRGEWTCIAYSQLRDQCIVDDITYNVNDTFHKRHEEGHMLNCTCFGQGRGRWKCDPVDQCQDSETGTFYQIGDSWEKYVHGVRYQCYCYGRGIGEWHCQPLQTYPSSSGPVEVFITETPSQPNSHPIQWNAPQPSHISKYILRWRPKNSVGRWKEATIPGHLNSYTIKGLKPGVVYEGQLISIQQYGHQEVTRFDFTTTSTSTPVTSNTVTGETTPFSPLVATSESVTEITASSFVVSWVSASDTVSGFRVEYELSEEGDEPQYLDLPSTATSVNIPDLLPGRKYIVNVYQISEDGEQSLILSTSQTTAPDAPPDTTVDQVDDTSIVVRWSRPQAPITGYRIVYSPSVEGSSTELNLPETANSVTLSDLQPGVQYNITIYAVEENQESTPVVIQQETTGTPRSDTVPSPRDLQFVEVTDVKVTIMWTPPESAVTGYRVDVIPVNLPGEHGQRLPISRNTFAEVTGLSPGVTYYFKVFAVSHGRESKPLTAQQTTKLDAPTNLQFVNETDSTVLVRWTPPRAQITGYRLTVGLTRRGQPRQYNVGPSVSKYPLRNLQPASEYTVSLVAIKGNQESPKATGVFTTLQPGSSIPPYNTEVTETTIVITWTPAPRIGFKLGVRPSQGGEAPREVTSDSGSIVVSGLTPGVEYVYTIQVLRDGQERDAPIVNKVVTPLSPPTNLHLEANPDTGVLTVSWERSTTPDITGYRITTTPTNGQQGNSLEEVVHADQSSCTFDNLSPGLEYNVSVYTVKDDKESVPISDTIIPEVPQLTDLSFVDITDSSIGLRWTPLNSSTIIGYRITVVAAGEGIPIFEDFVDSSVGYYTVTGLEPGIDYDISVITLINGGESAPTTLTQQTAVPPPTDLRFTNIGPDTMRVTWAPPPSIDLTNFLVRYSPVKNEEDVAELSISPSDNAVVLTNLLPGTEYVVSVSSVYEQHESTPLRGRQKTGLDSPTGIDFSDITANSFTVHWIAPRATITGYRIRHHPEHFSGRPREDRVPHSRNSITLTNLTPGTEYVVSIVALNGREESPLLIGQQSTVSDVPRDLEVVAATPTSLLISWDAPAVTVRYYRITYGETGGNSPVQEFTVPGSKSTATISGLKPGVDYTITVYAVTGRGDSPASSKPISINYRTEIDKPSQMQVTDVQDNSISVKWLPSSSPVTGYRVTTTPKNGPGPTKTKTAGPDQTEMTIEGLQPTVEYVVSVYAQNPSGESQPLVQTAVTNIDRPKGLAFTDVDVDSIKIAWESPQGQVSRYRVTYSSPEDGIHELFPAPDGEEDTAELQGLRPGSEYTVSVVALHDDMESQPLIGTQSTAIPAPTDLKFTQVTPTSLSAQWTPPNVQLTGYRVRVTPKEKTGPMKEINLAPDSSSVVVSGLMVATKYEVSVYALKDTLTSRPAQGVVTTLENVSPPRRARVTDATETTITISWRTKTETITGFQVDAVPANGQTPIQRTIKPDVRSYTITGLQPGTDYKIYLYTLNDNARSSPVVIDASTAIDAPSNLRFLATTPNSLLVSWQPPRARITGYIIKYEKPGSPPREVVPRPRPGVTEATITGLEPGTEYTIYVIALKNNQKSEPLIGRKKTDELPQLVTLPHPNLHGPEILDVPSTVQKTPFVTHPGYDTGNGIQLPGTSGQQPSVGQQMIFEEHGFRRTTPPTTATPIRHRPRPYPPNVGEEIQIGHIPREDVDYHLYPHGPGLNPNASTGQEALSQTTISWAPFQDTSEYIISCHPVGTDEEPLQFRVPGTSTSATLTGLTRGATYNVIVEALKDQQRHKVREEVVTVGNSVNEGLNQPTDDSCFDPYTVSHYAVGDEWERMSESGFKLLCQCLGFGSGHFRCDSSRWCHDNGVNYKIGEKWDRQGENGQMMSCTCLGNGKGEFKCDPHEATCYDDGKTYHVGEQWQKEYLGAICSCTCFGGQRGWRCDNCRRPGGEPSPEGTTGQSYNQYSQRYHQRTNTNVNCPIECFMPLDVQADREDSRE
EGF, sequence (P01133 971-1023 limits assumed, species assumed): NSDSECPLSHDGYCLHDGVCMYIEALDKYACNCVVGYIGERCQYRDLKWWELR

B1: lacritin: recombinant human lacritin from E. coli; mature 119 residue fragment (SEQ ID NO:10) of native lacritin SEQ ID NO:4 (protein, listed as Homo sapiens)
chain: EDASSDSTGADPAQEAGTSKPNEEISGPAEPASPPETTTTAQETSAAAVQGTAKVTSSRQELNPLKSIVEKSILLTEQALAKAGKGMHGGVPGGKQFIENGSEFAQKLLKKFSLLKPWA
On to B1, for which the binding to heparin result in “ECM binding ELISA” is on record as “No binding”. The “binding to EGF” value with EGF was “No binding”. Further, in the test with collagen I, the “binding to collagen I” value is on record as “No binding”. Moreover, in the test on collagen IV, the “binding to collagen IV” value is given as “strong basement membrane binding”. For the same molecule, the binding to fibronectin entry with fibronectin was “remarkable avidity”. Also, the “binding to laminin-1” value in the test on laminin-1 is reported as “strong basement membrane binding”. In the test with nidogen/entactin, the binding to nidogen/entactin result is recorded as “strong basement membrane binding”. Besides, in the test with vitronectin, the binding to vitronectin result is “remarkable avidity”.
